Experimental data published in IntAct's records for PubMed 16004875.

B1: Vesicle-associated membrane protein-associated protein A (Rattus norvegicus (Rat)), Q9Z270 (parent)
chain: MASASGAMAKHEQILVLDPPSDLKFKGPFTDVVTTNLKLQNPSDRKVCFKVKTTAPRRYCVRPNSGVIDPGSIVTVSVMLQPFDYDPNEKSKHKFMVQTIFAPPNISDMEAVWKEAKPDELMDSKLRCVFEMPNENDKLNDMEPSKAVPLNASKQDGPLPKPHSVSLNDTETRKLMEECKRLQGEMMKLSEENRHLRDEGLRLRKVAHSDKPGSTSAVSFRDNVTSPLPSLLVVIAAIFIGFFLGKFIL
partner: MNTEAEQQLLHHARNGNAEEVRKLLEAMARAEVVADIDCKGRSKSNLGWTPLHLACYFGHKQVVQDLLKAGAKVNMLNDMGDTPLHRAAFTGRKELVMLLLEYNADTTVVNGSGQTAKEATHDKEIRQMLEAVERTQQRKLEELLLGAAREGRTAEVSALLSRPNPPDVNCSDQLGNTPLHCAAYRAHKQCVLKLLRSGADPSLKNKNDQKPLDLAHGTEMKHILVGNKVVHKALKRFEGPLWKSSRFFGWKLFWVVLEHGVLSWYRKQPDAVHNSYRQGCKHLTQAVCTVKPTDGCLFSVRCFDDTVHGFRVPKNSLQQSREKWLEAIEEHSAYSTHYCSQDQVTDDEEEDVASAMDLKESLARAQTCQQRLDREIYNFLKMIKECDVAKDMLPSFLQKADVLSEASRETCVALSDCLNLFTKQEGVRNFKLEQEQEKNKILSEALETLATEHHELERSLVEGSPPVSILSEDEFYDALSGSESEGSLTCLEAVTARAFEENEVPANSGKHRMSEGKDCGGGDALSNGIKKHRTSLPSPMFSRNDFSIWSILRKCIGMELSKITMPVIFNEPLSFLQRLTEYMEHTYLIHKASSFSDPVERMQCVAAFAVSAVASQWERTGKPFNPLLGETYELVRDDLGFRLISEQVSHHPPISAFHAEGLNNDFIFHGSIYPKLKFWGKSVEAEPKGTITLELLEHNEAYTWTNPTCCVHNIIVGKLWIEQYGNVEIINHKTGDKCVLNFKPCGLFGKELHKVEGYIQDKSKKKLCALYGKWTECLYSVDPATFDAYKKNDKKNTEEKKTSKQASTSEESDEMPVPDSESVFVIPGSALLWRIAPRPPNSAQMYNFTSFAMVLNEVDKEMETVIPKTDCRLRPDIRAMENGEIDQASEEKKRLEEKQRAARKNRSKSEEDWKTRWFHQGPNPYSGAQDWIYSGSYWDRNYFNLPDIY
B2: Vesicle-associated membrane protein-associated protein SCS2 (Saccharomyces cerevisiae), P40075 (parent)
chain: MSAVEISPDVLVYKSPLTEQSTEYASISNNSDQTIAFKVKTTAPKFYCVRPNAAVVAPGETIQVQVIFLGLTEEPAADFKCRDKFLVITLPSPYDLNGKAVADVWSDLEAEFKQQAISKKIKVKYLISPDVHPAQNQNIQENKETVEPVVQDSEPKEVPAVVNEKEVPAEPETQPPVQVKKEEVPPVVQKTVPHENEKQTSNSTPAPQNQIKEAATVPAENESSSMGIFILVALLILVLGWFYR
partner: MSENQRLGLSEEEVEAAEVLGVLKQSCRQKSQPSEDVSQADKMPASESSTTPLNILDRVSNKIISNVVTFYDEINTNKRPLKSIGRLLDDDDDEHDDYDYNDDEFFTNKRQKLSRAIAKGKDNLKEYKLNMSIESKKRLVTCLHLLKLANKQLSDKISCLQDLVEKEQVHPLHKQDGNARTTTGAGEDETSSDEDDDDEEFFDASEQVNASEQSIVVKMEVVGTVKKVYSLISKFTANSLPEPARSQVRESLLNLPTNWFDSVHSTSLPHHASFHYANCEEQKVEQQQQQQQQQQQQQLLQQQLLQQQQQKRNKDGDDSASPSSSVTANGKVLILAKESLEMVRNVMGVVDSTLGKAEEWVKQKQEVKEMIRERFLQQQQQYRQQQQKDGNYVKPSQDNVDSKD

Variants of: B1
Conditions: with osbl1_rat Osbpl1a

Row | Variant | effect of a mutation on the interaction
1 | K94D;M96D | disrupting interaction

Variants of: B2
Conditions: with opi1_yeast OPI1, P21957

Row | Variant | effect of a mutation on the interaction
2 | K84D;L86D | disrupting interaction
